Data as given in the supplement of paper PMC9112550, “Optimization of the antimicrobial peptide Bac7 by deep mutational scanning” (BMC Biology, 2022).

system: Escherichia coli TOP10; experiment: shrunken log2 fold change of peptide-encoding DNA abundance (4.5 h post-induction vs induction); higher = less antimicrobial activity (less host growth inhibition); details: time post-induction: 4.5 h; library: site-saturation at positions 5, 18, 19, 20
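Further: peptides expressed intracellularly from a pBAD plasmid library in pooled LB shake-flask culture, induced with 0.3% L-arabinose, DNA abundance read by NGS, three biological replicates, DESeq2 with apeglm shrinkage.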

Sequence | shrunken log2 fold change
RRIRPRPPRLPRPRPRPYITPRP | -0.739
RRIRWRPPRLPRPRPRPKWSPRP | 0.272
RRIRSRPPRLPRPRPRPPLTPRP | 0.367
RRIRDRPPRLPRPRPRPDWHPRP | 0.0912
RRIRCRPPRLPRPRPRPATGPRP | 0.201
RRIRERPPRLPRPRPRPCKSPRP | -0.0225
RRIRGRPPRLPRPRPRPEVQPRP | 1.71
RRIRLRPPRLPRPRPRPHMPPRP | -0.222
RRIRRRPPRLPRPRPRPCIVPRP | -0.183
RRIRARPPRLPRPRPRPRRLPRP | 0.537
RRIRMRPPRLPRPRPRPISEPRP | 0.151
RRIRHRPPRLPRPRPRPSHGPRP | -0.137
RRIRRRPPRLPRPRPRPWNYPRP | -0.242
RRIRTRPPRLPRPRPRPNMNPRP | -0.864
RRIRWRPPRLPRPRPRPQAGPRP | 0.335
RRIRARPPRLPRPRPRPACEPRP | 0.879
RRIRERPPRLPRPRPRPPPFPRP | 0.313
RRIRSRPPRLPRPRPRPQDPPRP | 0.122
RRIRGRPPRLPRPRPRPMHCPRP | 0.0139
RRIRNRPPRLPRPRPRPIHFPRP | -0.263
RRIRCRPPRLPRPRPRPQVLPRP | -0.0248
RRIRFRPPRLPRPRPRPGYSPRP | -0.934
RRIRDRPPRLPRPRPRPPCQPRP | 0.029
RRIRMRPPRLPRPRPRPWHTPRP | 0.0985
RRIRNRPPRLPRPRPRPKVRPRP | -0.0024

Sequence | shrunken log2 fold change
RRIRYRPPRLPRPRPRPRLIPRP | -0.466
RRIRPRPPRLPRPRPRPAPAPRP | 0.425
RRIRNRPPRLPRPRPRPGENPRP | 0.185
RRIRGRPPRLPRPRPRPLYPPRP | 0.162
RRIRMRPPRLPRPRPRPMRNPRP | 1.62
RRIRWRPPRLPRPRPRPNISPRP | -0.279
RRIRCRPPRLPRPRPRPAYAPRP | 0.00565
RRIRARPPRLPRPRPRPFNEPRP | -0.1
RRIRYRPPRLPRPRPRPGTPPRP | 1.16
RRIRYRPPRLPRPRPRPRVNPRP | 0.00364
RRIRLRPPRLPRPRPRPDIIPRP | -0.173
RRIRIRPPRLPRPRPRPLNAPRP | -0.107
RRIRGRPPRLPRPRPRPHCKPRP | 0.0392
RRIRLRPPRLPRPRPRPVAVPRP | 0.0513
RRIRWRPPRLPRPRPRPQPAPRP | 0.812
RRIRFRPPRLPRPRPRPPGRPRP | 0.637
RRIRPRPPRLPRPRPRPYQTPRP | 0.0331
RRIRNRPPRLPRPRPRPCCQPRP | -0.6
RRIRWRPPRLPRPRPRPSFGPRP | -0.0482
RRIRVRPPRLPRPRPRPGAAPRP | 0.653
RRIRPRPPRLPRPRPRPEWEPRP | 0.304
RRIRWRPPRLPRPRPRPRAPPRP | 0.84
RRIRNRPPRLPRPRPRPNYMPRP | -0.784
RRIRIRPPRLPRPRPRPAFMPRP | -0.3
RRIRNRPPRLPRPRPRPFVCPRP | -0.45

Sequence | shrunken log2 fold change
RRIRPRPPRLPRPRPRPFRMPRP | -0.134
RRIRQRPPRLPRPRPRPETDPRP | -0.167
RRIRQRPPRLPRPRPRPMMKPRP | -0.0269
RRIRFRPPRLPRPRPRPGNIPRP | -0.0525
RRIRFRPPRLPRPRPRPEAPPRP | 0.529
RRIRERPPRLPRPRPRPLKEPRP | -0.0885
RRIRKRPPRLPRPRPRPKIDPRP | 0.545
RRIRLRPPRLPRPRPRPLFNPRP | -0.468
RRIRKRPPRLPRPRPRPWPVPRP | 0.47
RRIRLRPPRLPRPRPRPQNDPRP | -0.271
RRIRFRPPRLPRPRPRPCTKPRP | -0.229
RRIRKRPPRLPRPRPRPDIYPRP | 0.152
RRIRQRPPRLPRPRPRPSMWPRP | 0.0422
RRIRPRPPRLPRPRPRPFCHPRP | -0.00162
RRIRQRPPRLPRPRPRPDGMPRP | -0.199
RRIRGRPPRLPRPRPRPEDDPRP | 2.81
RRIRTRPPRLPRPRPRPRACPRP | 0.608
RRIRARPPRLPRPRPRPMWLPRP | 0.0028
RRIRGRPPRLPRPRPRPLTLPRP | 0.275
RRIRCRPPRLPRPRPRPNQWPRP | -0.117
RRIRCRPPRLPRPRPRPPEQPRP | 2.18
RRIRSRPPRLPRPRPRPQTNPRP | -0.032
RRIRYRPPRLPRPRPRPCKKPRP | -0.0222
RRIRNRPPRLPRPRPRPGQVPRP | 0.0381
RRIRLRPPRLPRPRPRPSVIPRP | -0.183
